Data on one molecule can be found in US10538591B2, “Anti-fibulin-3 antibodies and uses thereof” (THE BRIGHAM AND WOMEN'S HOSPITAL, INC., priority 2014, dated 2020).

Entries after “also recorded” stand apart in the source; their conditions may differ.

The conditions of series [1]: mouse, in vivo.
In a further series the target is T1, purified human fibulin-3 (Homo sapiens, UniProt Q12805).
T1 construct: purchased ORIGENE
T1 sequence (Q12805 18-493): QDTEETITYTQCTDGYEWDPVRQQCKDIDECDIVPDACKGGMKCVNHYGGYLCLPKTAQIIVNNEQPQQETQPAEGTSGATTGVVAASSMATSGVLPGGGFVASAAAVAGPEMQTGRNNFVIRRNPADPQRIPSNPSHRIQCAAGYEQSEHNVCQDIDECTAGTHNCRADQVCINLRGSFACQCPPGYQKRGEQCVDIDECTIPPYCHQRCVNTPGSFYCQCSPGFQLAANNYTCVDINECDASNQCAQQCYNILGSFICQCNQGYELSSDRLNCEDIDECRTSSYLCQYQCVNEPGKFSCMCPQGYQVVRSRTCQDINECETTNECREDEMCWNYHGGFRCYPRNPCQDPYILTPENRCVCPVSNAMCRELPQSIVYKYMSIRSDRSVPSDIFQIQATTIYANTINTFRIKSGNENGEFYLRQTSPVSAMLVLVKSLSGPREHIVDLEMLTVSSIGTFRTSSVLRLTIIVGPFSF
Kind of series: Western blot and dot-blot detection of fibulin-3. The format is binding. How it is done:
CNSI glioma cells were transfected with fibulin-3 cDNA (fib3-OE cells) or a control plasmid (control cells) and cultured for 24 h in serum-free conditions. Conditioned medium was collected and probed by Western blotting with anti-Fib3/911 (911), anti-Fib3/912 (912), or their respective preimmune sera (antibodies and sera were used at 1/5000 dilution).
Two rabbit polyclonal antibodies were commissioned against the 23-amino acid peptide sequence of fibulin-3 involved in Notch activation. The peptide was minimally modified to facilitate the formation of a disulfide bridge necessary to form a conformational, tri-dimensional epitope (FIG. 4). Antibodies against fibulin-3 (“anti-Fib3/911” and “anti-Fib3/912”) were purified by affinity chromatography, aliquoted, and prepared in phosphate-buffered saline (PBS) solution for all subsequent tests.
Purified human fibulin-3 (200 ng/lane, ORIGENE) was subjected to SDS-PAGE in reducing and non-reducing conditions and probed with affinity-purified mAb428.3C11 (0.4 to 20 μg/ml, diluted in PBS from a 2 mg/ml stock).
Concentrated, serum-free culture medium from HEK293 cells (1 mg/ml total protein) was probed with anti-human IgG secondary antibody (HRP conjugate) to detect the chains of antibody in reducing and non-reducing conditions. C) Concentrated medium from HEK293 cells (1 mg/ml total protein) was directly used to probe purified human fibulin-3 (resolved by SDS-PAGE in non-reducing conditions).
On the technique in general: A western blot detects proteins with antibodies after separation by electrophoresis.

A further series relates to normal adult human brain. Put plainly: Immunohistochemistry of normal adult human brain sections. The following applies: anti-Fib3/911 10 μg/ml, mAb428.3C11 40 μg/ml, mAb3-5 5 μg/ml. The method, then: Frozen sections of human primary glioblastoma and normal adult human brain were fixed in ethanol/acetate buffer and processed for immunohistochemistry with the following anti-fibulin-3 antibodies: rabbit polyclonal anti-Fib3/911 (10 μg/ml), mouse monoclonal anti-fibulin-3 mAb428.3C11 (40 μg/ml), and a commercial mouse monoclonal antibody against human fibulin-3 (mAb3-5, 5 μg/ml, Santa Cruz Biotechnology). […] Both in-house generated antibodies show stronger staining in the tumor parenchyma compared to the commercial antibody. In all cases, staining is particularly intense around tumor blood vessels. […] Sections were counterstained to identify endothelial markers and cell nuclei by staining with anti-CD31 and DAPI respectively. (Data not shown).

Series [2] relates to NFkB signaling induced by fibulin-3. Put plainly: NF-kB luminescent reporter in U251 glioma cells transfected with fibulin-3 cDNA. It counts as cell-based. The following applies: 100 μg/ml, 0, 2, 6 and 24 h. The method, then:
Glioma cells (U251 line) were transfected with a luminescent reporter plasmid driven by NF-kB signaling (pGL4.32[luc2P/NF-κB-RE/Hygro], PROMEGA). Cells were co-transfected with plasmids carrying fibulin-3 cDNA (Fib3 OE) or a control cDNA (Control) and incubated in serum-free conditions for 24 h. The following day mAb428.2 (100 μg/ml) was added to the cultures and NFkB signaling activity was measured after 0, 2, 6, and 24 h.

Series [3] has as its system GBM34 glioblastoma stem cells. Put plainly: Intravenous injection in subcutaneous GBM34 xenografts, growth and overall survival. The format is in vivo, Athymic mice. The method, then:
Athymic mice received SQ bilateral implants of GBM34 glioblastoma stem cells (1×10^6 cells/50 μl). Tumors were allowed to grow until they reached a volume of 100 mm^3. Animals (N=5/group) were then injected with mAb428.2 (30 mg/kg) or non-immune mouse IgG1 every day, for a total of 8 days (total: 8 injections). Mice were monitored for tumor growth and sacrificed when any of their tumors reached a length >=20 mm. Long-term survivors (>40 days) in which length was not increasing above 20 mm were euthanized when tumors reached width >=15 mm or presented ulcerations. […] Curves for overall survival were compared by long-rank test

Series [4] deals with GBM34 glioblastoma stem cells. Put plainly: Intratumoral injection in subcutaneous GBM34 xenografts. It counts as in vivo, Athymic mice. The method, then:
Athymic mice received sub-cutaneous (SQ) bilateral implants of GBM34 glioblastoma stem cells (1×10^6 cells/50 μl). Tumors were allowed to grow until they reached a volume of 100 mm^3. Animals (N=5/group) were then injected with mAb428.2 (10 mg/kg) in the left-side tumor and non-immune mouse IgG1 in the right-side tumor, every two days (total: 4 injections). Mice were sacrificed when any of their tumors reached a length >18 mm. […] Growth curves were analyzed by repeated-measures ANOVA and final parameters were compared by paired T-test.
Athymic mice received SQ bilateral implants of GBM34 glioblastoma stem cells (1×10^6 cells/50 μl). Tumors were allowed to grow until they reached a volume of 100 mm^3. Animals (N=3/group) were then injected with mAb428.3C11 (30 mg/kg) in the left-side tumor and non-immune mouse IgG1 in the right-side tumor, every two days (total: 3 injections). Mice were sacrificed when any of their tumors reached a length >=20 mm. […] Growth curves were analyzed by repeated-measures ANOVA and final parameters were compared by paired T-test.

B1: mAb428.2: mouse monoclonal IgG1 kappa antibody against human fibulin-3 peptide SEQ ID NO:2; VH SEQ ID NO: 3, VL SEQ ID NO: 4 (antibody, V domains shown)
VH: QIQLVQSGPELKKPGETVKISCKASGYSFTTYGMSWVKQAPGKGLKWMGWINTYSGVPTYADDFKGRFAFFLETSASTAYLQINNLKNEDTATYFCARWVDYWGQGTTLTVSS
VL: DIKMTQSPSSMYASLGERVTITCKASQDIKSYLSWHQQKPWKSPKTLIYYATSLADGVPSRFSGSGSGQDYSLTISSLESDDTATYYCLQHGKSPYTFGGGTKLEIK
As to B1, in series [1], the “accumulation in skin or connective tissues” value is “did not accumulate in these tissues”, the “amount detected through the skull” value was “very small but higher than the amount of a control IgG1 antibody” and the “detection in intracranial tumors” value is listed as “not detected in significant amounts”. In series [1] (2.5 mg/kg), the “detection in subcutaneous tumors” value was “still detectable with high intensity of fluorescence”; the “time of accumulation in the liver” value was “>= 6”; the “time of accumulation of fluorescence in the bladder” value amounted to 2 h; the “time of clearance from bladder and liver” value is given as “>= 24 h”. Also, the “detection of fibulin-3 by Western blotting” value with purified human fibulin-3 (SDS-PAGE, reducing and/or non-reducing conditions) is “high sensitivity of the antibody towards fibulin-3”. Further, the “detection of native fibulin-3 by dot-blotting” value with purified human fibulin-3 (non-reduced fibulin-3 on nitrocellulose, scFv428.2 medium 1 mg/ml, mAb428.2 1 μg/ml) was “able to detect native fibulin-3 by dot-blotting”. In addition, in the series on normal adult human brain, the “staining in normal brain” value is recorded as “without cross-reactivity against normal brain”. Besides, the “staining in normal brain” value in the series with normal adult human brain (listed as mAb428.3C11) is recorded as “complete absence of staining in normal tissue”. In addition, in series [2], the “effect on fibulin-3-induced NFkB signaling” value is “blocking of this effect”. In addition, the “overall survival compared to control IgG1” value in series [3] (30 mg/kg IV every day, 8 injections) is listed as “extended overall survival two-fold; also recorded: significant prolongation of overall survival”. In series [3] (IV 8×30 mg/kg), the tumor growth result was “significant delay in tumor growth”. For the same molecule, the “tumor volume and weight compared to control IgG1” value in series [4] (10 mg/kg intratumoral every two days, 4 injections) was “reduction in tumor volume and weight”. The “tumor volume and weight compared to control IgG1” value in series [4] (30 mg/kg intratumoral every two days, 3 injections) was “reduction in tumor volume and weight”. In series [4] (direct intratumoral injection, GBM stem cell xenograft), this molecule returned a median volume reduction of 45%.
